The target of assay [1] is T1, human calcitonin receptor (human, UniProt P30988 25-474).
T1 construct: whole, on cells; Assay used cell membranes of the transfected BHK cells; also called hCTR; hCT
T1 sequence (looked up): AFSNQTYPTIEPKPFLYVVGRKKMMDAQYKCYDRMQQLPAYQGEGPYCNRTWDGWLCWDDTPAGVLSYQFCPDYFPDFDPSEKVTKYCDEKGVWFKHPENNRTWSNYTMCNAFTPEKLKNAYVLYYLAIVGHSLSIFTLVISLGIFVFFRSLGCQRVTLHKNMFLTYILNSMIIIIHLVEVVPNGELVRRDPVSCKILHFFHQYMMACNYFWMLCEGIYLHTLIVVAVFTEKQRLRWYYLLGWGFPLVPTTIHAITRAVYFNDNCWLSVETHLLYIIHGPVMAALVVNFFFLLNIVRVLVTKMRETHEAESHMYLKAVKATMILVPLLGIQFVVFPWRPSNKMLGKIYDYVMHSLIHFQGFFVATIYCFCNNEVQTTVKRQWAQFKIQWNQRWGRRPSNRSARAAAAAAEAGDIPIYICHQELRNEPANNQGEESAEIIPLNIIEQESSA
Put plainly: SPA radioligand competition (125I-calcitonin), membranes of BHK cells with human calcitonin receptor. In a few lines:
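BHK hCTR membranes 35 ng/μL + SPA beads 0.05 mg/well; buffer 50 mM Hepes pH 7.4, 1 mM CaCl2, 5 mM MgCl₂, 0.1% OA, 0.02% Tween20. 120 min, 25° C., shaking. Scintillation count; IC50 by one-site binding competition.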
In general terms: Loss of bound radioactivity is the signal in a displacement assay; it reports binding, not function.

Assay [2] has as its target T1, human calcitonin receptor. Put plainly: ratio IC50 hCTR / IC50 hAmylin-R of the two SPA competition assays; reference: human amylin receptor. The protocol: The resulting pellet was resuspended, homogenized and centrifuged (20.000 rpm, 15 min) in a buffer containing 20 mM Na-HEPES and 0.1 mM EDTA (pH 7.4, buffer 2). The resulting pellet was resuspended in buffer 2 and protein concentration was measured (BCA protein Assay, Pierce). The homogenate was kept cold during the whole procedure. The membranes were kept at −80° C. until use. The assay was performed in a 384 well Optiplate (PerkinElmer) in a total volume of 40 ul. Membranes were mixed with SPA beads. Final concentration of membranes 35 ng/μL final and SPA beads was 0.05 mg/well. Test-compounds were dissolved in DMSO and further diluted in assay buffer (50 mM Hepes, pH 7.4, 1 mM CaCl2, 5 mM MgCl₂, 0.1% OA and 0.02% Tween20). […] The final mixture was incubated with shaking at 400 rpm for 120 min at 25° C. prior to centrifugation (1500 rpm, 10 min). Samples were analyzed on TopCounter™ (Packard). The IC₅₀ was calculated using (one site binding competition analysis) GraphPad Prism5 as a measure of receptor affinity.
Membranes were prepared in the following way; the cells were rinsed with PBS and incubated with Versene for approximately 5 min before harvesting. The cells were flushed with PBS and the cell-suspension was centrifuged for 5 min at 1000 rpm. Cells were homogenized (Ultrathurrax) in a buffer containing 20 mM Na-HEPES and 10 mM EDTA (pH 7.4) and centrifuged at 20.000 rpm for 15 min. The resulting pellet was resuspended, homogenized and centrifuged (20.000 rpm, 15 min) in a buffer containing 20 mM Na-HEPES and 0.1 mM EDTA (pH 7.4, buffer 2). The resulting pellet was resuspended in buffer 2 and protein concentration was measured (BCA protein Assay, Pierce). The homogenate was kept cold during the whole procedure. The membranes were kept at −80° C. until use. Assay was performed in a 384 well Optiplate (PerkinElmer) in a total volume of 40 ul. Membranes were mixed with SPA beads.

Results on 4 molecules are retold here after patent publication US20140087995A1 (published 2014).

Numbered stars: 1 amine (or outer) side, 2 acyl side, 3 side chain; on linkers, the order of the positions; unused ones are H or OH. Bridge positions count the residues as written; N and C are the ends. * marks the point of attachment. C20 diacid = O=C(O)CCCCCCCCCCCCCCCCCCC(=O)*; γGlu = O=C(O)[C@H](CCC(=O)[*:2])N[*:1]

B1: N^α1-[(4S)-4-carboxy-4-(19-carboxynonadecanoylamino)butanoyl]-[Arg17,Pro21,Pro27,Glu35]-h-amylin (peptide)
peptide: KCNTATCATQRLANFLRHSSPNFGAIPSSTNVGSETY
modifications: C20 diacid-gGlu on the alpha amino group of the N-terminal residue (Lys1); disulfide Cys2-Cys7; C-terminal amide
notes: Synthetic analogue; also called compound 23
For orientation: IC50 means the midpoint of a concentration-inhibition curve. On to B1, for which the IC50 in assay [1] is 0.0218 µM. For the same molecule, the “Ratio hCT/hAmylin binding” value in assay [2] worked out at 25.

B2: N^α1-[(4S)-4-carboxy-4-(19-carboxynonadecanoylamino)butanoyl]-[Arg17,Pro21,Pro27,His34]-h-amylin (peptide)
peptide: KCNTATCATQRLANFLRHSSPNFGAIPSSTNVGHNTY
modifications: C20 diacid-gGlu on the alpha amino group of the N-terminal residue (Lys1); disulfide Cys2-Cys7; C-terminal amide
notes: Synthetic analogue; also called compound 40
With B2, in assay [1], the IC50 turned out to be 0.0171 µM. Also, the “Ratio hCT/hAmylin binding” value in assay [2] stood at 31.1.

B3: N^α1-[(4S)-4-carboxy-4-(19-carboxynonadecanoylamino)butanoyl]-[Arg17,Pro21,Pro27,Pro31,Glu35]-h-amylin (peptide)
peptide: {C20 diacid-γGlu}-KCNTATCATQRLANFLRHSSPNFGAIPSSTPVGSETY-NH2
modifications: disulfide 2-7
SMILES: CC[C@H](C)[C@H](NC(=O)[C@H](C)NC(=O)CNC(=O)[C@H](Cc1ccccc1)NC(=O)[C@H](CC(N)=O)NC(=O)[C@@H]1CCCN1C(=O)[C@H](CO)NC(=O)[C@H](CO)NC(=O)[C@H](Cc1c[nH]cn1)NC(=O)[C@H](CCCNC(=N)N)NC(=O)[C@H](CC(C)C)NC(=O)[C@H](Cc1ccccc1)NC(=O)[C@H](CC(N)=O)NC(=O)[C@H](C)NC(=O)[C@H](CC(C)C)NC(=O)[C@H](CCCNC(=N)N)NC(=O)[C@H](CCC(N)=O)NC(=O)[C@@H](NC(=O)[C@H](C)NC(=O)[C@@H]1CSSC[C@H](NC(=O)[C@H](CCCCN)NC(=O)CC[C@H](NC(=O)CCCCCCCCCCCCCCCCCCC(=O)O)C(=O)O)C(=O)N[C@@H](CC(N)=O)C(=O)N[C@@H]([C@@H](C)O)C(=O)N[C@@H](C)C(=O)N[C@@H]([C@@H](C)O)C(=O)N1)[C@@H](C)O)C(=O)N1CCC[C@H]1C(=O)N[C@@H](CO)C(=O)N[C@@H](CO)C(=O)N[C@H](C(=O)N1CCC[C@H]1C(=O)N[C@H](C(=O)NCC(=O)N[C@@H](CO)C(=O)N[C@@H](CCC(=O)O)C(=O)N[C@H](C(=O)N[C@@H](Cc1ccc(O)cc1)C(N)=O)[C@@H](C)O)C(C)C)[C@@H](C)O
notes: Synthetic analogue; also called compound 28
B3: the IC50 in assay [1] stood at 0.0125 µM. Besides, in assay [2], the “Ratio hCT/hAmylin binding” value is 20.5.

B4: N^α1-[(4S)-4-carboxy-4-(19-carboxynonadecanoylamino)butanoyl]-[Arg17,Pro21,Pro27,Arg34]-h-amylin (peptide)
peptide: KCNTATCATQRLANFLRHSSPNFGAIPSSTNVGRNTY
modifications: C20 diacid-gGlu on the alpha amino group of the N-terminal residue (Lys1); disulfide Cys2-Cys7; C-terminal amide
notes: Synthetic analogue; also called compound 39
As to B4, the half-inhibitory concentration (IC50) in assay [1] amounted to 0.0193 µM. Moreover, in assay [2], the “Ratio hCT/hAmylin binding” value turned out to be 29.
